Data taken from the supplement of paper PMC9170038.

tested on: K4 kissing-loop RNA reporter; assay: apparent KD of K4 kissing-loop reporter; higher = weaker reporter binding; conditions: Eterna round: R107; input ligand: theophylline 20 uM
Method: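 RNA-MaP round R107: designed RNA switches with theophylline, tryptophan, arginine or FMN aptamers are transcribed on-chip within common flanks. They are titrated with a labelled K4 kissing-loop RNA reporter in RNA-MaP buffer (100 mM Tris pH 7.5, 80 mM KCl, 4 mM MgCl2), without ligand or with the indicated ligand. Median apparent KD per design.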
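Note: bound reporter read as fluorescence of individual clusters on recovered sequencing chips by microscopy, with normalized cluster intensities fitted with a binding model.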

Going from “GGAUAGGACAGAGGAUAUGGUAGCUAGGCAAGACAAAAGUCUUGUCUAGCAAUGAGGAGUGAUGUUCCAGAAGGCUGUCCUAUCG [FmnBX 4 - #SwitchBubble #StaticStem]” to “UGAUUAAGCAGUGAUGUUGCAAGUAAUGAUACCAGUUAAGAAGAGAACCCUUGGCAGCAUAAAGUGCGCUCUGAUGAGUGUGCUU [whbob_SS_Theo_A_w53]”, the “apparent KD of K4 kissing-loop reporter” value falls from 0.387 µM to 0.169 µM (2.3-fold).

Compared with “GGGAGAAGUGCGGCCGCCACUGAGAAAGAAGAAGAAUAUAGUGAUGUUAUAUAGGAAAGGAAGAACAGGACCGGGCAUAAGAGGG [SSTryptB.A]”, “UAGGAGUGAUGUUCCAUGUCUUGAGCCGAAGGAGCGCCUUUCUAGGCAGGUAGGUCGCGGCAGAAGGUACCAGUGAUGUUGGAAA [Same State Arginine A GF8]” is 2.2-fold higher in “apparent KD of K4 kissing-loop reporter” value: 0.131 µM for the first, 0.283 µM for the second.

Going from “GUAUCGCUAGGAGGAUAUUUCGUUUUUCAUAGCAAUGGCUGUGCGGAGUGAUGUUCCGAUUUACCGGAAGAAGGCCUAGUGAUAC [FMN B 27]” to “CCUAUCUCAUACGAUACCAGUCAAUGAUCUUUGAUCAAUGCCAUCACCGAGUGAUGUUCGGACCCUUGGCAGCGUAUGAGAUGGG [whbob_Ex_Theo_B_sa104]”, the “apparent KD of K4 kissing-loop reporter” value rises from 0.158 µM to 0.376 µM (2.4-fold).

Going from “GGACUACUAUGUCCCAUACAAACAAGAGAUACCAGCCAUCAUAGAGGCCCUUGGCAGCUCAUAUAAUCCAGUGAUGUUGGAUUUC [Beveus]” to “GGUGACGACCAGAGGUGAUGUAUAGUAUCGCGAGGACCGGUACGGCCGCCACUCGUGAAGAGAAAGGAGUGAUGUUCCGUAAUGG [Kazoo C9]”, the “apparent KD of K4 kissing-loop reporter” value rises from 0.136 µM to 0.289 µM (2.1-fold).

Going from “UUUUUAUUCAGUGAUGUUGAAUUUAUAUCAGAGGAUAUGCAUAAAAGCAGAAGGCUGAAAUACUAUACUUUAAUAAAUUAUAUUU [JR_SSFMNA_Sub017]” to “GCUAUGGUAGGAAGGAGCGCUGCCUUGUUUUUACGAGUGAUGUUCGGAAGCAGGGCGUUAAAGCAGGUAGGUCGCCUACUAUAGC [Arginine B K4 22]”, the “apparent KD of K4 kissing-loop reporter” value falls from 0.37 µM to 0.147 µM (2.5-fold).

First: UCCUACGAGGUAACGUGGAUAUCUCGUUGCAAGGAUAUCUGGAAACAGAGAAGGUGCUACAUUAUCGGCAGUGAUGUUGCUGACC
Second: AAAGAUGCGUCGGCCGCCACUGUUGCCAGUGAUGUUGGCAUGUAGAUGCAGUGAUGUUGCGUUUUCAGGACCGGGACGUAAGAUG [5th]
The “apparent KD of K4 kissing-loop reporter” value of the first is 3.1-fold higher: 0.759 µM for the first, 0.246 µM for the second.

“GGCGUCAAACCAGAACUAGUGAUGUUGGUUCGAGGACCGGUACGGCCGCCACUCGAUCUCUUGGUCCAUCGCGGAAGGGCAGCGG [theeternabot_exclusion_KL_Trp_A_29]” and “UUUGUAUAGGGAAGGAGCGUGAAUGAUAAAGAAUAUAGUGAUGUUAUAUAGAAGAAAGAAUCACAGGUAGGUCGCCCGGAGGAGG [SSArgB.H]” are within 1.5-fold of each other in “apparent KD of K4 kissing-loop reporter” value: 0.414 µM for the first, 0.45 µM for the second.

Compared with “AGUGCCGAGUGUGAUACCAGCUUCAUGCAGUGAUGUUGCACACGAGUGAUGUUCGUCCGAGGCCCUUGGCAGCGCAGUCGCUCGA [Same State Theophylline B Gf 30]”, “UGUGAUGUUGUGAUGUUUAGUGUUGUUGGGCAGGAUAUUGUAGAGGCGAGAAGGGCUAGUGUGAUGUAUGAGUGAUGUUUGUAGU [kkollmullin]” is 4-fold lower in “apparent KD of K4 kissing-loop reporter” value: 0.711 µM for the first, 0.177 µM for the second.

“UGUCAUUGGUCUGAUACCAGAAGAAAUCUGGAGUGAUGUUCCAAGUCGACAAAAUGUCGCUUCCCUUGGCAGCAGACCGAUGACU [TheoBS 23 #SwitchBubble 13 #StaticStem]” and “GUUACGCAUGGAAGGAGCGCUCUCAUAUUUAAUAACACAGUGAUGUUGUGAAUUUAUAUAAAGCAGGUAGGUCGCCAUGUGUAAC [Ex Arginine B K4 6]” are within 1.5-fold of each other in “apparent KD of K4 kissing-loop reporter” value: 0.222 µM for the first, 0.276 µM for the second.

“GGUAUCUAUACAGAUACCAGUCGUACAGCACCAUUACAGGUUAGUGAUGUUAACCUGUACGACCCUUGGCAGCUGUAUUAUAAUA [#15 K4 Theophylline B Exclusion]” and “UGACUACAUAAGGAAUAAUCCUAGUGAUGUUAGGAUAUGCUGAUAAGCAGAAGGAACGGAGAUCGAAGGAUCUCAUAUGUAGUCU [whbob_Ex_FMNA__2th194]” are within 1.5-fold of each other in “apparent KD of K4 kissing-loop reporter” value: 0.0914 µM for the first, 0.121 µM for the second.

Compared with “GUGCGCGGUGCGGCCGCCACUCGCAUGAGAGUGAUGUUCUCGGGACGGACGGAAGUCCGUCAUGUGAGGACCGGGCAUGGCUGCG [#2 Same State - Tryptophan B Attempt #10 (HarryS)]”, “UACUUAUAUAUCAACUUAAAUUAUUCAGAAGGAGCGUGAUCAUUCACAGGUAGGUCGCUGAACUAGUGAUGUUAGUUUUAAUUUU [JR_Nu_ExcArginiA_Sub023]” is 3.9-fold lower in “apparent KD of K4 kissing-loop reporter” value: 0.497 µM for the first, 0.126 µM for the second.

“GAGAUAGAGGCGGCCGCCACUAGUGAUGUUAGUGAUGUUAGAUAGAGAAUAUAACAGGGAUUAGAUAGGACCGGGCCAGAUGGAG ['lljullin]” and “AGUAUAGAGUCGGCCGCCACUGGUUUUAUGUGUGUCAAAUCUGGAUCAAAGUGAUGUUUUGAGACUAGGACCGGGACCAUUGUUA [#06 K4 Tryptophan B Exclusion]” are within 1.5-fold of each other in “apparent KD of K4 kissing-loop reporter” value: 0.103 µM for the first, 0.131 µM for the second.

Compared with “AGUACAGACACGGCCGCCACUCAGAAGAAGACAGUAGUGAUGUUACUGAUGGUGAGAAUAAUAAAGAGGACCGGGUGUUGUGCAA [#04 K4 Tryptophan B Same State]”, “CCUAUCUCAUACGAUACCAGUGAAUUUAUGUUUAUUAGCAGUGAUGUUGCGUUCCAAGUACACCCUUGGCAGCGUAUGGGAUAGG [Ex Theophylline B K4 24]” is 1.7-fold lower in “apparent KD of K4 kissing-loop reporter” value: 0.24 µM for the first, 0.143 µM for the second.
